From PMC2836968 (Molecular Biology of the Cell, 2010)

B1: Aha1 N-terminal domain (amino acids 1-162) (domain or fragment)
chain: MAKWGEGDPRWIVEERADATNVNNWHWTERDASNWSTDKLKTLFLAVQVQNEEGKCEVTEVSKLDGEASINNRKGKLIFFYEWSVKLNWTGTSKSGVQYKGHVEIPNLSDENSVDEVEISVSLAKDEPDTNLVALMKEEGVKLLREAMGIYISTLKTEFTQG
B2: Aha1 C-terminal domain (amino acids 163-338, with the linker region 163-200) (domain or fragment)
chain: MILPTMNGESVDPVGQPALKTEERKAKPAPSKTQARPVGVKIPTCKITLKETFLTSPEELYRVFTTQELVQAFTHAPATLEADRGGKFHMVDGNVSGEFTDLVPEKHIVMKWRFKSWPEGHFATITLTFIDKNGETELCMEGRGIPAPEEERTRQGWQRYYFEGIKQTFGYGARLF

Molecular target: human Hsp90β (human, UniProt P08238 1-724)
Sequence (P08238 whole entry): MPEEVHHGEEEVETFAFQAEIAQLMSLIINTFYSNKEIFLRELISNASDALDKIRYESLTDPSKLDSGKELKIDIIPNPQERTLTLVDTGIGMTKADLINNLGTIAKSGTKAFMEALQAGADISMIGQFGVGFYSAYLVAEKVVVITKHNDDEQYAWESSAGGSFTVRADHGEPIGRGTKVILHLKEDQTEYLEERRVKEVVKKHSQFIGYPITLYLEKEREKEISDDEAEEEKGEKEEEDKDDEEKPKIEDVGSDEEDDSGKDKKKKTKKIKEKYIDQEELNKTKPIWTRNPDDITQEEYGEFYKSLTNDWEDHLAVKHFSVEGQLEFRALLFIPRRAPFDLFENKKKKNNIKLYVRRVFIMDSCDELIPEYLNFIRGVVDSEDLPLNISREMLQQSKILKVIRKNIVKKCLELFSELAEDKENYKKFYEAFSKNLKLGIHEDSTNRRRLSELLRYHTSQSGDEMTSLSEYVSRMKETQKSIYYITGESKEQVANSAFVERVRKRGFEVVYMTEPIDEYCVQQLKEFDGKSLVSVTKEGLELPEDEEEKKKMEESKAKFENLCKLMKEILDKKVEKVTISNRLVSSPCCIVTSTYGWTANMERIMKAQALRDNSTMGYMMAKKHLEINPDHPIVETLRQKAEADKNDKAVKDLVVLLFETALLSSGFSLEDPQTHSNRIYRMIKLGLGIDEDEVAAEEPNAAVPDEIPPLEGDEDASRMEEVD
Assay: SPR

Binder	Kd [µM]
B1	2.5
B2	3.8
